Measured values from US9481899B2, “Methods and compositions for producing hydrocarbons” (priority 2008, dated 2016).
Read-outs that look alike come from different tables or passages of the source.

T1: PCC7942_orf1594 protein (Synechococcus elongatus, UniProt Q54765)
T1 construct: made in house; host or cells: E. coli BL21 (DE3)
T1 sequence (Q54765 1-341): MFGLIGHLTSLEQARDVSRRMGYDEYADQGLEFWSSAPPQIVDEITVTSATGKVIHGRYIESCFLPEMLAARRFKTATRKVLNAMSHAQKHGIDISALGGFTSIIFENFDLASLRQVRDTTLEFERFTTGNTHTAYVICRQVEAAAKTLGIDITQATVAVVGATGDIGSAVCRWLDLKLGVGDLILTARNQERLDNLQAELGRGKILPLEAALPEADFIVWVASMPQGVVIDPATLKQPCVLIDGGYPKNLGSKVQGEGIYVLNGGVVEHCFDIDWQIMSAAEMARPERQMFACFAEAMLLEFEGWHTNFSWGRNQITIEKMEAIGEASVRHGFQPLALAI


Assays:
PCC7942_orf1594 protein = biological target: T1, PCC7942_orf1594 protein; test: Acyl-ACP or acyl-CoA reductase enzyme assay; format: biochemical, Synechococcus elongatus PCC7942; details: for reduction to fatty aldehyde: 10 μM enzyme, MgCl2, NADPH, 1 h at 37° C.
Procedure: The genomic DNA encoding S. elongatus […] orf1594 (SEQ ID NO:65) was cloned into the NcoI and XhoI sites of vector pET-28b under the control of the T7 promoter. The resulting PCC7942_orf1594 protein contained a C-terminal His-tag. An E. coli BL21 strain (DE3) (Invitrogen) was transformed with the plasmid and PCC7942_orf1594 protein was expressed and purified as described in Example 22. The protein solution was stored in the following buffer: 50 mM sodium phosphate, pH 7.5, 100 mM NaCl, 1 mM THP, 10% glycerol. Protein concentration was determined using the Bradford assay (Biorad). 2 mg/mL of PCC7942_orf1594 protein was obtained.
To test PCC7942_orf1594 protein for acyl-ACP or acyl-CoA reductase activity, the following enzyme assays were set-up. 100 μL reactions were set-up in 50 mM Tris-HCl buffer at pH 7.5 with the following components at their respective final concentrations: 10 μM of purified PCC7942_orf1594 protein, 0.01-1 mM acyl-CoA or acyl-ACP, 2 mM MgCl2, 0.2-2 mM NADPH. The reactions were incubated for 1 h at 37° C. and where stopped by adding 100 μL ethyl acetate (containing 5 mg/l 1-octadecene as internal standard). Samples were vortexed for 15 min and centrifuged at max speed for 3 min for phase separation. 80 μL of the top layer were transferred into GC glass vials and analyzed by GC/MS as described in Example 26. The amount of aldehyde formed was calculated based on the internal standard.
Next, the stereospecific hydride transfer from NADPH to a fatty aldehyde catalyzed by PCC7942_orf1594 was examined. Deutero-NADPH was prepared according to the following protocol. 5 mg of NADP and 3.6 mg of D-glucose-1-d was added to 2.5 mL of 50 mM sodium phosphate buffer (pH 7.0). Enzymatic production of labeled NADPH was initiated by the addition of 5 units of glucose dehydrogenase from either Bacillus megaterium (USB Corporation) for the production of R-(4-^2H)NADPH or Thermoplasma acidophilum (Sigma) for the production of S-(4-^2H)NADPH. The reaction was incubated for 15 min at 37° C., centrifuge-filtered using a 10 KDa MWCO Amicon Ultra centrifuge filter (Millipore), flash frozen on dry ice, and stored at −80° C.
The in vitro assay reaction contained 50 mM Tris-HCl (pH 7.5), 10 μM of purified PCC7942_orf1594 protein, 1 mM octadecanoyl-CoA, 2 mM MgCl2, and 50 μL deutero-NADPH (prepared as described above) in a total volume of 100 μL. After a 1 h incubation, the product of the enzymatic reaction was extracted and analyzed as described above. The resulting fatty aldehyde detected by GC/MS was octadecanal (see FIG. 34). Because hydride transfer from NADPH is stereospecific, both R-(4-^2H)NADPH and S-(4-^2H)NADPH were synthesized.

E. coli MG1655 = test: Coexpression of decarbonylase and aldehyde-generating enzyme in E. coli, GC-MS of hydrocarbons; format: cell-based; details: for Production of Alkanes and Alkenes: alkane/alkene biosynthetic polypeptide coexpressed in E. coli with the aldehyde biosynthetic polypeptide of the same table row; for fatty aldehyde decarbonylase activity in E. coli: cotransformed with S. elongatus PCC7942_1594 into E. coli MG1655, M9 minimal media, 37° C.
Text: Seven cyanobacteria, whose complete genome sequences are publicly available, were selected for verification and/or detection of alkane biosynthesis: Synechococcus elongatus PCC7942, Synechococcus elongatus PCC6301, Anabaena variabilis ATCC29413, Synechocystis sp. PCC6803, Nostoc punctiforme PCC73102, Gloeobacter violaceus ATCC 29082, and Prochlorococcus marinus CCMP1986. Only the first three cyanobacterial strains from this list had previously been reported to contain alkanes (Han et al., J. Am. Chem. Soc. 91:5156-5159 (1969); Fehler et al., Biochem. 9:418-422 (1970)). The strains were grown photoautotrophically in shake flasks in 100 mL of the appropriate media (listed in Table 8) for 3-7 days at 30° C. at a light intensity of approximately 3,500 lux. Cells were extracted for alkane detection as follows: cells from 1 mL culture volume were centrifuged for 1 min at 13,000 rpm, the cell pellets were resuspended in methanol, vortexed for 1 min and then sonicated for 30 min. After centrifugation for 3 min at 13,000 rpm, the supernatants were transferred to fresh vials and analyzed by GC-MS. The samples were analyzed on either 30 m DP-5 capillary column (0.25 mm internal diameter) or a 30 m high temperature DP-5 capillary column (0.25 mm internal diameter) using the following method.
After a 1 μL splitless injection (inlet temperature held at 300° C.) onto the GC/MS column, the oven was held at 100° C. for 3 mins. The temperature was ramped up to 320° C. at a rate of 20° C./min. The oven was held at 320° C. for an additional 5 min. The flow rate of the carrier gas helium was 1.3 mL/min. The MS quadrapole scanned from 50 to 550 m/z. Retention times and fragmentation patterns of product peaks were compared with authentic references to confirm peak identity.
The genomic DNA encoding Synechococcus elongatus PCC7942 orf1594 (YP_400611; putative aldehyde-generating enzyme) (SEQ ID NO:65) was amplified and cloned into the NcoI and EcoRI sites of vector OP-80 (pCL1920 derivative) under the control of the Ptrc promoter. The resulting construct (“OP80-PCC7942_1594”) was transformed into E. coli MG1655 and the cells were grown at 37° C. in M9 minimal media with 1% (w/v) glucose as carbon source and supplemented with 100 μg/mL spectinomycin. When the culture reached OD600 of 0.8-1.0, it was induced with 1 mM IPTG and cells were grown for an additional 18-20 h at 37° C. Cells from 0.5 mL of culture were extracted with 0.5 mL of ethyl acetate. After sonication for 60 min, the sample was centrifuged at 15,000 rpm for 5 min. The solvent layer was analyzed by GC-MS as described in Example 1.
The genomic DNA encoding Synechococcus elongatus PCC7942 orf1593 (YP_400610; putative decarbonylase) (SEQ ID NO:1) was amplified and cloned into the NdeI and XhoI sites of vector OP-183 (pACYC derivative) under the control of the Ptrc promoter. The resulting construct was cotransformed with OP80-PCC7942_1594 into E. coli MG1655 and the cells were grown at 37° C. in M9 minimal media supplemented with 100 μg/mL spectinomycin and 100 μg/mL carbenicillin. The cells were cultured and extracted as in Example 3 and analyzed by GC-MS as described in Example 1. […]

[1] = tested on: E. coli MG1655 ΔfadD lacZ::Ptrc-′tesA; test: Decarbonylase expression in fatty aldehyde-producing E. coli strain expressing MSMEG_5739; format: cell-based; details: coexpressed with M. smegmatis carboxylic acid reductase MSMEG_5739
[2] = in the presence of 2 mM NADPH, read-out: Km for the reduction

Molecule	reduction to fatty aldehyde (PCC7942_orf1594 protein)	Production of Alkanes and Alkenes (E. coli MG1655)	fatty aldehyde decarbonylase activity in E. coli (E. coli MG1655)	conversion of fatty aldehydes provided by MSMEG_5739 to alkanes [1]	other results
[2H]C1C=CN(C2OC(COP(=O)(O)OP(=O)(O)OCC3OC(n4cnc5c(N)ncnc54)C(OP(=O)(O)O)C3O)C(O)C2O)C=C1C(N)=O (stereo not drawn) [S-(4-^2H)NADPH]	–	–	–	–	stereospecific hydride transfer to fatty aldehyde (PCC7942_orf1594 protein; 1 mM octadecanoyl-CoA, deutero-NADPH, 1 h): Octadecanal with a plus one unit mass was observed
CCCCCCCCCCCCCCCCCC(=O)SCCNC(=O)CCNC(=O)[C@H](O)C(C)(C)COP(=O)(O)OP(=O)(O)OC[C@H]1O[C@@H](n2cnc3c(N)ncnc32)[C@H](O)[C@@H]1OP(=O)(O)O [octadecanoyl-CoA]	able to reduce	–	–	–	–
NADPH	–	–	–	–	Km (PCC7942_orf1594 protein; in the presence of 0.5 mM octadecanoyl-CoA, read-out: Km value for NADPH): 400 ± 80 µM
octadecenoyl-ACP	able to reduce	–	–	–	Km (PCC7942_orf1594 protein; [2]): 7.8 ± 2 µM
octadecenoyl-CoA	able to reduce	–	–	–	Km (PCC7942_orf1594 protein; [2]): 82 ± 22 µM
NC(=O)C1=CN([C@@H]2O[C@H](COP(=O)(O)OP(=O)(O)OC[C@H]3O[C@@H](n4cnc5c(N)ncnc54)[C@H](O)[C@@H]3O)[C@@H](O)[C@H]2O)C=CC1 [NADH]	–	–	–	–	support of reductase activity as electron donor (PCC7942_orf1594 protein; octadecanoyl-CoA, Mg2+): did not support reductase activity
SEQ ID NO: 7: Nostoc sp. PCC7210 alr5283, putative decarbonylase (protein, listed as Nostoc sp.) MQQVAADLEIDFKSEKYKDAYSRINAIVIEGEQEAYENYIQLSQLLPDDKEDLIRLSKMESRHKKGFEACGRNLQVSPDMEFAKEFFAGLHGNFQKAAAEGKIVTCLLIQSLIIECFAIAAYNIYIPVADDFARKITEGVVKDEYSHLNFGEVWLQKNFAQSKAELEEANRHNLPIVWKMLNQVADDAAVLAMEKEALVEDFMIQYGEALSNIGFTTRDIMRMSAYGLTAA	–	yes	active fatty aldehyde decarbonylase	converted fatty aldehydes provided by MSMEG_5739 to the corresponding alkanes	–
SEQ ID NO: 9: Acaryochloris marina MBIC11017 AM1_4041, putative decarbonylase (protein, listed as Acaryochloris marina) MPQTQAISEIDFYSDTYKDAYSRIDGIVIEGEQEAHENYIRLGEMLPEHQDDFIRLSKMEARHKKGFEACGRNLKVTCDLDFARRFFSDLHKNFQDAAAEDKVPTCLVIQSLIIECFAIAAYNIYIPVADDFARKITESVVKDEYQHLNYGEEWLKAHFDDVKAEIQEANRKNLPIVWRMLNEVDKDAAVLGMEKEALVEDFMIQYGEALSNIGFSTGEIMRMSAYGLVAA	–	yes	active fatty aldehyde decarbonylase	converted fatty aldehydes provided by MSMEG_5739 to the corresponding alkanes	–
SEQ ID NO: 5: Nostoc punctiforme PCC73102 Npun02004178, putative decarbonylase (protein, Nostoc punctiforme, Nostoc punctiforme PCC73102 Npun02004178, putative decarbonylase) MQQLTDQSKELDFKSETYKDAYSRINAIVIEGEQEAHENYITLAQLLPESHDELIRLSKMESRHKKGFEACGRNLAVTPDLQFAKEFFSGLHQNFQTAAAEGKVVTCLLIQSLIIECFAIAAYNIYIPVADDFARKITEGVVKEEYSHLNFGEVWLKEHFAESKAELELANRQNLPIVWKMLNQVEGDAHTMAMEKDALVEDFMIQYGEALSNIGFSTRDIMRLSAYGLIGA	–	yes	active fatty aldehyde decarbonylase	converts tetradecanal, hexadecenal and hexadecanal provided by the carboxylic acid reductase MSMEG_5739 to tridecane, pentadecene and pentadecane	–
SEQ ID NO: 15: Gloeobacter violaceus PCC7421 gll3146, putative decarbonylase (protein, listed as Gloeobacter violaceus) VNRTAPSSAALDYRSDTYRDAYSRINAIVLEGEREAHANYLTLAEMLPDHAEALKKLAAMENRHFKGFQSCARNLEVTPDDPFARAYFEQLDGNFQQAAAEGDLTTCMVIQALIIECFAIAAYNVYIPVADAFARKVTEGVVKDEYTHLNFGQQWLKERFVTVREGIERANAQNLPIVWRMLNAVEADTEVLQMDKEAIVEDFMIAYGEALGDIGFSMRDVMKMSARGLASAPRQ	–	yes	active fatty aldehyde decarbonylase	converted fatty aldehydes provided by MSMEG_5739 to the corresponding alkanes	–
